Measured values taken from the supplement of paper PMC9876800.

Test system: peptide library, one residue held at a place counted from the S/T acceptor
Experiment: relative phosphorylation of the sub-library (ratio to the mean residue at this position); higher = residue favoured
Conditions: human
Procedure, shortened: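 Human or orthologue kinase constructs, purified and recombinant, were incubated under kinase-specific conditions in 384-well plates with biotinylated degenerate peptide sub-libraries. Each sub-library fixed one residue at one position around a central Ser/Thr. Incubations lasted 90 min with peptides at 50 μM and 50 μM ATP spiked with γ-32P-ATP, after which spots on streptavidin membranes were phosphorimaged and quantified by densitometry. Relative sub-library phosphorylation is a ratio to the mean residue at that position.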

CLK2, construct: aa137-498, sequence (P49760 137-498, looked up): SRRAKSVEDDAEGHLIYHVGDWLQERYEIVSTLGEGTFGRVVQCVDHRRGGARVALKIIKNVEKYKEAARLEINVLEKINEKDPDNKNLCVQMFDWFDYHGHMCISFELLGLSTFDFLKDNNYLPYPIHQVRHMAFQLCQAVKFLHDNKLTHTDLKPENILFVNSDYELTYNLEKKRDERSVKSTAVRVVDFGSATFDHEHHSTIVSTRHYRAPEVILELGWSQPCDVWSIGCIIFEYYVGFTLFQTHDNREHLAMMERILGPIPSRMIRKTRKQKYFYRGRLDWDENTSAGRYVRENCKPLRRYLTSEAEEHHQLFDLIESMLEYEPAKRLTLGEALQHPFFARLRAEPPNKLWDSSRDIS
LRRK2, construct: aa960-end, sequence (Q5S007 960-2527, looked up): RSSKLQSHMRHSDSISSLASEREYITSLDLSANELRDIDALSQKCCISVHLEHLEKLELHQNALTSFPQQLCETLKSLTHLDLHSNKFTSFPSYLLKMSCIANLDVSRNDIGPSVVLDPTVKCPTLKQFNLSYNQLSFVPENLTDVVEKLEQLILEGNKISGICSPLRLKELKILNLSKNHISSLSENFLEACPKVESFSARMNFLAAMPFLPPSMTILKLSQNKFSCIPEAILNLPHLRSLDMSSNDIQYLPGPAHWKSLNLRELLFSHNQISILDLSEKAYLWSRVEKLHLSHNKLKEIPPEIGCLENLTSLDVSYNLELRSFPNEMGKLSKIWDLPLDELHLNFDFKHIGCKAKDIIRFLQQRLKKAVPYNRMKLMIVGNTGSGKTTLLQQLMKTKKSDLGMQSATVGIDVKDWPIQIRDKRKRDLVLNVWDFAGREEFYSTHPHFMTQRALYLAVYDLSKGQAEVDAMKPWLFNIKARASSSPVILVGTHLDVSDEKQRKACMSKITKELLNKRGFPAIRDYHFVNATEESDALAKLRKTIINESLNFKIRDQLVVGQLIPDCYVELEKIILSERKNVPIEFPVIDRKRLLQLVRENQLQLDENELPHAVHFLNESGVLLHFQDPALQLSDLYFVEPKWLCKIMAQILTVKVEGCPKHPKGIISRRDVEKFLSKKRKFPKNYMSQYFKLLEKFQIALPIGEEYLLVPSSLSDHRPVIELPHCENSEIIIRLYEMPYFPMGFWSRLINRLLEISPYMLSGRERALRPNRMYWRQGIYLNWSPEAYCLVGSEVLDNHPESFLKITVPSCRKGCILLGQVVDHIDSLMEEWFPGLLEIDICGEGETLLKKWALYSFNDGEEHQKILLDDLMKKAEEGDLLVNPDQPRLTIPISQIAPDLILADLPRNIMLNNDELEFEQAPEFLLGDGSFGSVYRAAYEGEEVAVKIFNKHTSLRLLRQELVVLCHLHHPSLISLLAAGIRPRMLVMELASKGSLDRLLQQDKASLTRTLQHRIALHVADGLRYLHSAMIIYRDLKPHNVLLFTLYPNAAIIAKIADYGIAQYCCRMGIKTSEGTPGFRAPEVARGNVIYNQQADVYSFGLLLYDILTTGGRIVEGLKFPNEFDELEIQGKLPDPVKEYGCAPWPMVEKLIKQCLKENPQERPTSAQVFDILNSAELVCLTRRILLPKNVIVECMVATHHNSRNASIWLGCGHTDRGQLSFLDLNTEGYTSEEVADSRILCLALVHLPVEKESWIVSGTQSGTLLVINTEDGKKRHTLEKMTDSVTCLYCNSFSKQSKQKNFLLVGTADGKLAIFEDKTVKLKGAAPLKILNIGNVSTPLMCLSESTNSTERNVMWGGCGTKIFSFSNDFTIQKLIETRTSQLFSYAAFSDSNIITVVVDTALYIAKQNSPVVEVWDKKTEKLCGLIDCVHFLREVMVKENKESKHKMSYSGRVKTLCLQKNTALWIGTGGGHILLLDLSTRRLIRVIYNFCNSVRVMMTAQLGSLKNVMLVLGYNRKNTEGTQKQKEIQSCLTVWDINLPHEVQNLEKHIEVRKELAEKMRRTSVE
MAPKAPK2, construct: Full length, sequence (P49137 whole entry, looked up): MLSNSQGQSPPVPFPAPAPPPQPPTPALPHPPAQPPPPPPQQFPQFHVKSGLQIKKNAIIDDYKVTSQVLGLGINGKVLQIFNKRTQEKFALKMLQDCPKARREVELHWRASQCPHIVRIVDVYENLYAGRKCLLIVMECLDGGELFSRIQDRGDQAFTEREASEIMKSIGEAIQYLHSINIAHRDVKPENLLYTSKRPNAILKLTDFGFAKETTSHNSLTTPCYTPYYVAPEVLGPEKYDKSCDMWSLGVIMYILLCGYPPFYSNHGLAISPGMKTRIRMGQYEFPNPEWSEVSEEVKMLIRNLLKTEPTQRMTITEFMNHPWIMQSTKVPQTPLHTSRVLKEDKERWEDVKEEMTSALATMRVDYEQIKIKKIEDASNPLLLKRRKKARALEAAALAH

LRRK2, construct: aa960-end (from UniProt Q5S007)
relative phosphorylation
Conditions	at +1	at +2	at +3	at +4	at -1	at -2	at -3	at -4	at -5
A fixed	0.869	0.867	0.909	0.908	0.82	1.05	0.893	0.985	1.01
D fixed	0.525	0.559	0.696	0.691	0.639	0.516	0.675	0.685	0.698
E fixed	0.546	0.451	0.595	0.673	0.517	0.477	0.662	0.719	0.741
F fixed	0.874	1.17	0.884	1	0.94	1.95	1.05	1.23	1.09
G fixed	0.82	0.826	0.894	0.966	1.17	1.18	1.06	1.06	0.993
H fixed	0.814	1.02	1.16	1.18	1.15	1.18	1.08	0.949	1.04
I fixed	0.996	0.834	0.649	0.934	0.482	0.684	0.74	0.758	0.906
K fixed	1.91	1.44	1.82	1.39	1.76	0.755	1.43	1.12	1.08
L fixed	1.15	0.786	0.755	0.865	0.812	0.943	0.85	0.842	0.858
M fixed	1.08	0.952	0.776	0.949	0.969	1.35	0.974	0.957	1.05
N fixed	0.977	0.943	1.12	1.12	1.03	0.799	0.881	0.805	0.83
P fixed	0.941	0.724	0.822	0.794	0.88	0.943	1.01	1.1	0.989
Q fixed	1.07	0.709	0.946	1.02	0.765	0.73	0.83	0.821	0.813
R fixed	1.88	2.91	2.3	1.45	1.97	0.994	2.07	1.4	1.37
V fixed	0.777	0.83	0.741	0.79	0.553	0.658	0.723	0.846	0.971
W fixed	0.857	0.908	1.05	1.09	0.879	1.28	0.996	1.65	1.47
Y fixed	0.916	1.07	0.885	1.17	1.65	1.51	1.07	1.08	1.1
pThr fixed	0.67	0.672	0.925	0.822	0.54	0.782	0.822	0.859	0.932
pTyr fixed	0.759	0.688	0.9	0.868	0.709	0.754	0.909	0.892	1.18

MAP3K3, construct: Full length (from UniProt Q99759)
relative phosphorylation
Conditions	at +1	at +2	at +3	at +4	at -1	at -2	at -3	at -4	at -5
A fixed	0.713	0.684	0.711	0.953	0.837	0.924	0.739	0.897	0.956
D fixed	0.304	0.643	0.767	0.758	1.28	1.65	1.39	1.38	1.12
E fixed	0.322	0.539	0.758	1.04	1.01	0.958	1.37	1.23	1.01
F fixed	1.32	0.884	1.38	0.916	0.902	1.09	0.946	0.955	1.11
G fixed	0.603	0.488	0.904	0.904	1.25	0.969	1.33	0.913	0.916
H fixed	0.779	2.55	1.03	0.859	1.24	0.984	0.918	0.982	1.13
I fixed	1.77	0.745	1.01	0.961	0.747	1.02	0.876	0.892	0.869
K fixed	0.516	1.42	1.19	1.7	1.18	0.591	0.998	1.1	1.15
L fixed	1.49	0.808	1.2	0.821	0.922	0.794	0.851	0.93	0.895
M fixed	1.74	1.05	1.11	0.953	0.943	1.01	0.902	1.05	0.944
N fixed	0.48	1.03	0.992	0.962	1.3	0.932	1.04	1.01	1.03
P fixed	0.34	0.255	0.361	0.982	0.482	0.728	0.723	0.736	0.744
Q fixed	0.686	0.898	0.75	1.07	0.834	0.838	0.77	0.741	0.842
R fixed	0.796	1.67	1.15	1.35	1.54	0.915	1.28	1.09	1.05
V fixed	1.43	0.841	0.861	0.734	0.684	1.13	0.971	0.916	0.925
W fixed	2.59	0.994	1.57	1.02	0.849	1.15	0.981	1.07	1.21
Y fixed	1.11	1.5	1.26	1.02	1.01	1.31	0.912	1.1	1.08
pThr fixed	1.12	1.39	0.824	1.37	1.23	2.17	2.37	1.82	2.48
pTyr fixed	0.626	0.691	1.06	0.783	1.56	2.52	1.7	1.02	1.63

CLK2, construct: aa137-498 (from UniProt P49760)
relative phosphorylation
Conditions	at +1	at +2	at +3	at +4	at -1	at -2	at -3	at -4	at -5
A fixed	0.537	1.38	0.558	0.879	1.16	1.94	0.571	1.2	1.14
D fixed	0.278	1.66	0.658	2.06	0.653	0.869	0.537	0.818	0.937
E fixed	1.31	2.38	0.614	2.16	0.846	1.79	0.471	0.964	0.865
F fixed	0.258	0.524	0.357	0.734	0.316	0.239	0.223	0.547	0.929
G fixed	0.82	1.31	0.908	0.989	1.78	1.51	0.615	1.42	1.23
H fixed	0.56	0.949	0.851	0.93	0.812	0.538	0.627	0.906	1.05
I fixed	0.388	0.352	0.246	0.491	0.194	0.159	0.176	0.441	0.412
K fixed	0.663	0.989	2.22	1.03	2.09	1.06	2.11	1.82	2.18
L fixed	0.433	0.565	0.396	0.645	0.416	0.266	0.209	0.485	0.478
M fixed	0.872	0.633	0.332	0.764	0.614	0.328	0.277	0.707	0.54
N fixed	0.464	0.968	0.95	1.18	1.07	0.522	0.473	0.897	1.05
P fixed	7.13	1.76	2.02	0.754	2.01	0.616	0.523	1.29	0.976
Q fixed	1.05	1.02	0.772	1.28	1.28	0.824	0.64	1.07	0.879
R fixed	0.767	1.08	5.17	1.12	2.29	5.66	8.88	2.84	2.51
V fixed	0.804	0.483	0.322	0.695	0.465	0.2	0.222	0.521	0.604
W fixed	0.296	0.468	0.305	0.626	0.467	0.219	0.219	0.491	0.607
Y fixed	0.367	0.468	0.314	0.668	0.543	0.266	0.23	0.582	0.614
pThr fixed	1.28	5.19	0.962	4.17	0.539	0.556	0.521	0.958	1
pTyr fixed	1.47	1.44	1.32	1.97	2.09	0.473	0.485	1.08	1.12

MAPKAPK2, construct: Full length (from UniProt P49137)
relative phosphorylation
Conditions	at +1	at +2	at +3	at +4	at -1	at -2	at -3	at -4	at -5
A fixed	0.699	0.907	0.885	0.974	0.808	1.19	0.604	1.22	0.754
D fixed	0.716	1.92	2.48	1.79	1.12	0.349	0.262	0.669	0.268
E fixed	1.27	1.5	2.42	1.7	0.802	0.749	0.302	1.17	0.22
F fixed	0.729	0.59	0.436	0.561	0.69	0.568	0.212	0.659	1.39
G fixed	0.752	1.47	1.58	1.39	0.733	1.14	0.445	0.999	0.366
H fixed	1.52	1.18	1.1	1.01	1.38	0.778	1.08	1.07	0.67
I fixed	0.928	0.688	0.313	0.575	0.664	0.438	0.111	0.696	1.28
K fixed	0.861	0.655	0.784	0.987	1.2	0.693	1.91	1.75	0.51
L fixed	0.728	0.594	0.432	0.579	0.949	1.04	0.171	0.954	1.65
M fixed	1.27	0.616	0.43	0.598	0.994	1.67	0.275	1.23	1.14
N fixed	1.43	1.4	1.07	1.23	1.49	0.846	0.645	0.843	0.345
P fixed	0.206	1.48	1.75	1.84	1.69	0.655	0.889	0.805	1.42
Q fixed	1.47	1.04	1.17	1.07	1.31	3.73	1.03	1.33	0.941
R fixed	1.36	0.726	0.631	0.755	0.778	1.37	7.97	1.61	1.59
V fixed	1.14	0.885	0.501	0.739	0.87	0.615	0.154	0.725	1.1
W fixed	0.801	0.642	0.5	0.646	0.582	0.586	0.636	0.661	2.38
Y fixed	1.12	0.708	0.521	0.564	0.935	0.577	0.296	0.599	0.983
pThr fixed	1.61	1.04	1.11	1.83	0.519	0.372	0.258	0.504	0.365
pTyr fixed	5.15	2.06	1.63	1.61	1.04	0.397	0.218	0.557	0.646
